# Reference: patent US8003609B2, “Method for ameliorating pain by modification of NMDA receptors through inhibition of Src” (The Hospital for Sick Children, priority 2004, dated 2011)
# Experiments:
# [1] = target: T1, interaction between the ND2.1-GST and Src unique domain proteins (Homo sapiens, UniProt P03891, A265T); test: ND2.1-GST probed with biotinylated Src unique domain in the presence of peptide or antibody; format: binding; conditions: in vitro, ND2.1-GST incubated with peptide
# T1 construct: made in house; host or cells: BL21 bacteria
# Excerpt: (§1) Detailed protocols for in vitro binding assays, pull down assays, immunoblotting, and co-immunoprecipitation techniques can be found in Pelkey et al. (Neuron 34:127-138 2002).
# ND2 acts as an adapter protein for Src. […] Furthermore, the effect of Src40-58 on the interaction between Src and ND2 was examined (FIGS. 4D and 4E). […] Thus, it was concluded that amino acids 40-58 of Src interact with the region spanned by ND2.1, thereby mediating the binding between the Src unique domain and ND2.
# [2] = target: T2, association of Src with the NMDAR complexes (Rattus norvegicus, UniProt P11662); test: co-immunoprecipitation of Src with NMDARs from PSD proteins; format: binding
# T2 construct: from tissue; host or cells: rat brain post-synaptic density fraction
# Protocol: as §1
# Post-synaptic density proteins (Kennedy et al. Proceedings of the National Academy of Science USA 80:7357-7361 1983) were prepared from rat brain as described in detail (Pelkey et al. Neuron 34:127-138 2002). Cellular fractionation of rat brain tissue into nuclear, heavy mitochondrial, light mitochondrial, microsomal, and cytosolic fractions was performed by differential centrifugation of tissue homogenate in 0.25 M sucrose/10 mM HEPES-NaOH, 1 mM EDTA, pH 7.4 with 2 μg each of aprotinin, pepstatin A, and leupeptin (Sigma, St. Louis, Mo.) at 4° C. Nuclei were pelleted by centrifugation at 1 000 g for 10 minutes, the supernatant was removed and spun at 3 000 g for 10 minutes to obtain a heavy mitochondrial pellet. The supernatant was removed and spun at 16 000 g for 15 minutes to obtain a light mitochondrial pellet. The supernatant was removed and spun at 100 000 g for 1 hour to obtain a microsomal pellet and the cytosolic fraction. All pellets were then resuspended in RIPA buffer (50 mM Tris pH 7.6, 150 mM NaCl, 1 mM EDTA, 1% NP-40, 2.5 mg/ml NaDOC, 1 mM Na3VO4 1 mM PMSF, and 2 μg/ml each of protease inhibitors). The light mitochondrial fraction was used in subsequent experiments. […]
# ND2.1-GST = target: T3, ND2.1-GST (Homo sapiens, UniProt P03891, A265T); test: in vitro binding of biotinylated Src peptides to ND2.1-GST (blot / dot blot); conditions: biotinylated peptide, streptavidin-HRP detection
# T3 construct: made in house; host or cells: bacteria
# Protocol: Src, Fyn, and ND2 recombinant proteins were prepared. The cDNAs encoding the SH3 and SH2 domains of mouse n-Src and Fyn were PCR subcloned, ligated in frame into pGEX4T-1 (Amersham Pharmacia Biotech, Baie d'Urfé, Québec), and sequenced. These plasmids, as well as plasmids encoding the unique domains of Src and Fyn in pGEX2T'6, were transformed into BL21 bacteria, and GST fusion proteins were purified by glutathione affinity chromatography. To create the ND2.1, ND2.2, and ND2.3 GST fusion proteins, cDNAs encoding amino acids 239-321 (ND2.1-GST; SEQ ID NO:7), amino acids 189-238 (ND2.2-GST; SEQ ID NO:11), and amino acids 1-188 (ND2.3-GST; SEQ ID NO:13) of human ND2 were PCR subcloned and ligated into pGEX4T-1 (the nucleotide sequence encoding ND2 is SEQ ID NO:8 and the amino acid sequence is SEQ ID NO:9; the nucleotide sequences encoding ND2.1; ND2.2 and ND2.3 are SEQ ID NOS:6, 10 and 12, respectively). Using PCR-based single nucleotide mutagenesis, all cDNAs encoding ND2 fusion proteins were corrected for differences between mitochondrial and nuclear codons to prevent premature translation termination and protein truncation. All constructs were then confirmed by sequencing. The plasmids were transformed into bacteria, and GST fusion proteins were purified by glutathione affinity chromatography.
# Src40-58 and scrambled Src peptides were biotinylated by incubating with Sulfo-NHS-Biotin (Pierce Chemical Co., Rockford, Ill.) for 30 minutes at room temperature (SEQ ID NO:4, Src protein). […] Bound probe was then detected on film using an ECL kit.
# To detect the binding of ND2.1-GST with Src peptides, the ND2.1-GST fusion protein was purified on glutathione SEPHAROSE. […] Bound probe was then detected on film using an ECL kit (Amersham Pharmacia Biotech, Baie d'Urfé, Québec).
# Src40-58, Src40-49, Src49-58, scrambled Src40-58, TAT-Src40-49, and scrambled TAT-Src40-49 peptides were biotinylated by incubating with Sulfo-NHS-Biotin (Pierce Chemical Co., Rockford, Ill.) for 30 minutes at room temperature. […] Bound probe was then detected on film using an ECL kit.
# LTP in CA1 neurons = conditions: cited from earlier work
# T3 sequence (P03891 239-318 A265T): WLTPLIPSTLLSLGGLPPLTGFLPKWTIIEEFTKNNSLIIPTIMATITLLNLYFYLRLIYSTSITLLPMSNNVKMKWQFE
# T1 sequence (P03891 239-318 A265T): as above
# T2 sequence (P11662 whole entry, other chains not shown): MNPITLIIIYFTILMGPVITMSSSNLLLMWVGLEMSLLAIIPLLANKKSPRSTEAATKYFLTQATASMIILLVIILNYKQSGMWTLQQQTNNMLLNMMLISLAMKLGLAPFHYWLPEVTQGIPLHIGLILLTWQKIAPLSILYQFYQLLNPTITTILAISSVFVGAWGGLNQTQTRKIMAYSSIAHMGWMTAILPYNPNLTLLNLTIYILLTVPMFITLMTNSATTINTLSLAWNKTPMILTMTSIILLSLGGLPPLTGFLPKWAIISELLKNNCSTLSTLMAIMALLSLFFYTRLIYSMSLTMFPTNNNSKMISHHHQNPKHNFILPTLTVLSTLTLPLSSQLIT
substance,measurement,setting,value
Src40-58: peptide comprising amino acid residues 40-58 of SEQ ID NO:4 (Src) (PASADGHRGPSAAFAPAAA; listed as Homo sapiens),effect on ND2.1-GST pulling down the Src unique domain protein,[1],prevented
same,co-immunoprecipitation of Src with NMDARs,[2],suppressed
same,binding to ND2.1-GST,ND2.1-GST,bind directly
same,LTP in CA1 neurons,LTP in CA1 neurons,prevented
